Results on three molecules are retold here after patent US20250002610A1 (Genmab, published 2025).

For assay [1], the target named is T1, cynomolgus monkey DR4 with death domain deletion on ExpiCHO-S cells (cynomolgus monkey (Macaca fascicularis)).
T1 construct: also called cynomolgus DR4
T1 chain: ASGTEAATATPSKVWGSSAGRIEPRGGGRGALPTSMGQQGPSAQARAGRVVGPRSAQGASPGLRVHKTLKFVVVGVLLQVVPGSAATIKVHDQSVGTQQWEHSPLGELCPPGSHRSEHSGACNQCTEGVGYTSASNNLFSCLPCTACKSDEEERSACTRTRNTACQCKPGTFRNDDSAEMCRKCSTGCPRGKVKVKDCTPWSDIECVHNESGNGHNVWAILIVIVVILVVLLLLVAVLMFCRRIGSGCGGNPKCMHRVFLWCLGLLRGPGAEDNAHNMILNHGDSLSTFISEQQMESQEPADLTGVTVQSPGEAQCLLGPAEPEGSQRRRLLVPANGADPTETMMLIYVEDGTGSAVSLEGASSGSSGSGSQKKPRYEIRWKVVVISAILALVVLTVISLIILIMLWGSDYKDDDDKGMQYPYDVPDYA
The assay can be described thus: flow cytometry on ExpiCHO-S cells transiently expressing cynomolgus monkey DR4 (death domain deleted), gMFI PE. (In general: A flow cytometer gives signals particle by particle.)

Assay [2] deals with T2, FcγRIIa-R131 (CD32A Protein, Human, Recombinant (167 Arg, His & AVI Tag), Biotinylated) (human, UniProt P12318 34-218, limits assumed, biotinylated).
T2 construct: Bought reagent; not shown: His & AVI tag
T2 sequence (looked up): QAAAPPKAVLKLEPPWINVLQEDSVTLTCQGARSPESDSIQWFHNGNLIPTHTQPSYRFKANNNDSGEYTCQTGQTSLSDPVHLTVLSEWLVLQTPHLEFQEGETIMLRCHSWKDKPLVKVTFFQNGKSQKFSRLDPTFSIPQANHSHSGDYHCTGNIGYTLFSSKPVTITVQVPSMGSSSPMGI
The assay can be described thus: SPR (Biacore 8K), His-tagged FcγRIIa-R131 captured on an anti-His chip, antibody as analyte, endpoint response against concentration. As for the experimental part:
Binding of BisG1-FAPα-FERL/DR4-FERR to immobilized human His-tagged FcγRs and FcRn was analyzed by SPR using a Biacore 8K SPR system (Cytiva). To this end, anti-His antibodies were covalently immobilized on the surface of Biacore Series S Sensor Chip CM5 (Cytiva, Cat. #29104988) using the Amine Coupling Kit (Cytiva, Cat. #BR100050) and a His Capture Kit (Cytiva, Cat. #29234602) according to the manufacturer's instructions. To assess antibody binding to immobilized human FcγRs, aliquots of the recombinant His-tagged FcγR proteins (Table 24) were diluted in HBS EP+Buffer pH 7.4 (Cytiva, Cat. #BR100669) and used to capture the FcγR proteins on the surface of the anti-His antibody-coated sensors using a flow rate of 10 μL/min and a contact time of 60 s. Captured levels ranged from 434 to 592 RU. After three start-up cycles of HBS-EP+Buffer, concentration ranges of BisG1-FAPα-FERL/DR4-FERR or IgG1-b12 antibodies (Table 25) were injected to generate binding curves on FcγR-captured sensors (active surface). For each antibody sample, a parallel flow cell without captured FcγRs was included (reference surface), which was used for RU background correction.
All sensorgrams were subtracted by the signal of the third start-up cycle with buffer only (mock analyte). […]
For orientation: SPR reads the build-up and loss of mass on a sensor chip optically.

Assay [3] deals with T1, cynomolgus monkey DR4 with death domain …. Description: flow cytometry, ExpiCHO-S cells expressing cynomolgus monkey DR4, n = 3. How it is done: Binding of BisG1-FAPα-FERL/DR4-FERR, BisG1-DR4-FEAL/b12-FEAR and IgG1-DR4-FERR to DR4 of various species commonly used for nonclinical toxicology studies was assessed by flow cytometry using ExpiCHO-S cells transiently expressing DR4 from different animal species. In contrast to other species, rodents only express one DR which has highest homology with human DR5. Therefore, ExpiCHO-S cells transiently expressing rat and mouse DR protein were used instead. All DR constructs lack the intracellular DD to avoid apoptosis of transfected cells upon DR(4) activation. IgG1-b12 was used as negative control.

B1: BisG1-FAPα-FERL/DR4-FERR (bispecific antibody, human IgG1, kappa, lambda)
heavy 1: EVQLLESGGGLVQPGGSPRLSCEASGFTFSSYALSWVRQAPGKGLEWVSAISGSGGGRYYADSVKGRFTISRDNSKNTLFLQMNSLRAEDTAVYYCAKEGYSSSGTYWDHWGQGTLVTVSSASTKGPSVFPLAPSSKSTSGGTAALGCLVKDYFPEPVTVSWNSGALTSGVHTFPAVLQSSGLYSLSSVVTVPSSSLGTQTYICNVNHKPSNTKVDKRVEPKSCDKTHTCPPCPAPEFERGPSVFLFPPKPKDTLMISRTPEVTCVVVDVSHEDPEVKFNWYVDGVEVHNAKTKPREEQYNSTYRVVSVLTVLHQDWLNGKEYKCKVSNKALPAPIEKTISKAKGQPREPQVYTLPPSREEMTKNQVSLTCLVKGFYPSDIAVEWESNGQPENNYKTTPPVLDSDGSFLLYSKLTVDKSRWQQGNVFSCSVMHEALHNHYTQKSLSLSPG
light 1: AIQMTQSPSSVSASVGDRVTITCRASQGVSSWLAWYQQKPGRAPKLLIYVASTLQSGVPSRFSGSGSGTDFTLTINSLQPEDFATYYCQQANSFPPTFGQGTRLEMKRTVAAPSVFIFPPSDEQLKSGTASVVCLLNNFYPREAKVQWKVDNALQSGNSQESVTEQDSKDSTYSLSSTLTLSKADYEKHKVYACEVTHQGLSSPVTKSFNRGEC
heavy 2: QVQLQESGPGLVKPSGTLSLTCAVSGGSISSYSWWSWIRQPPGKGLEWIGELYHSGSTNYNPSLKSRVTISVDKSKNQFSLKLRSVTAADTAVYYCVRGVATIDYWGQGTLVTVSSASTKGPSVFPLAPSSKSTSGGTAALGCLVKDYFPEPVTVSWNSGALTSGVHTFPAVLQSSGLYSLSSVVTVPSSSLGTQTYICNVNHKPSNTKVDKRVEPKSCDKTHTCPPCPAPEFERGPSVFLFPPKPKDTLMISRTPEVTCVVVDVSHEDPEVKFNWYVDGVEVHNAKTKPREEQYNSTYRVVSVLTVLHQDWLNGKEYKCKVSNKALPAPIEKTISKAKGQPREPQVYTLPPSREEMTKNQVSLTCLVKGFYPSDIAVEWESNGQPENNYKTTPPVLDSDGSFFLYSRLTVDKSRWQQGNVFSCSVMHEALHNHYTQKSLSLSPG
light 2: QSALTQPPSASGSPGQSVTISCTGTSSDVGGYNFVSWYQQDPGKAPKLLIYEVTKRPSGVPDRFSGSKSGNTASLTVSGLQAEDEADYYCSSYAGSNNVMFGGGTKLTVLGQPKAAPSVTLFPPSSEELQANKATLVCLISDFYPGAVTVAWKADSSPVKAGVETTTPSKQSNNKYAASSYLSLTPEQWKSHRSYSCQVTHEGSTVEKTVAPTECS
notes: Human IgG1 bispecific made by controlled Fab-arm exchange of IgG1-FAPα-FERL and IgG1-DR4-FERR; monovalent for FAPα and for DR4; also called GEN1057
Turning to B1, the “EC50 (read off the curve)” value in assay [1] is roughly 1 µg/mL.

B2: IgG1-b12 (antibody)
heavy: not shown
light: EIVLTQSPGTLSLSPGERATFSCRSSHSIRSRRVAWYQHKPGQAPRLVIHGVSNRASGISDRFSGSGSGTDFTLTITRVEPEDFALYYCQVYGASSYTFGQGTKLERKRTVAAPSVFIFPPSDEQLKSGTASVVCLLNNFYPREAKVQWKVDNALQSGNSQESVTEQDSKDSTYSLSSTLTLSKADYEKHKVYACEVTHQGLSSPVTKSFNRGEC
notes: HIV gp120 antibody b12 with wild-type IgG1 Fc; also called IgG-b12
Regarding B2, the binding result in assay [2] is recorded as “binds”.

B3: IgG1-DR4-FERR (antibody, V domains shown)
VH: QVQLQESGPGLVKPSGTLSLTCAVSGGSISSYSWWSWIRQPPGKGLEWIGELYHSGSTNYNPSLKSRVTISVDKSKNQFSLKLRSVTAADTAVYYCVRGVATIDYWGQGTLVTVSS
VL: QSALTQPPSASGSPGQSVTISCTGTSSDVGGYNFVSWYQQDPGKAPKLLIYEVTKRPSGVPDRFSGSKSGNTASLTVSGLQAEDEADYYCSSYAGSNNVMFGGGTKLTVLG
notes: Bivalent monoclonal IgG1 lambda
In turn, B3 had an EC50 in assay [3] of 1.01 µg/mL.

As a reminder, the EC50 (read off the curve) is the concentration needed to bring the measured effect to its halfway point. Broadly, the EC50 is the concentration giving half of the maximal effect.
